Source: US6534640B1, “Methods and compositions to alter the cell surface expression of phosphatidylserine and other clot-promoting plasma membrane phospholipids” (Blood Center Research Foundation, priority 1996, dated 2003)
Positions count from the first letter of the chain named. Each block holds one molecule with its values, some of them ahead of it.

Key:
[1] = system: human cell lines (Raji, HL60, Dami, HEL, W9, Jurkat, Molt-4, K562); assay: Measurement of cell surface PS (FVa light chain binding, flow cytometry) in human cell lines after calcium ionophore; format: cell-based; settings: 2 μM A23187, 1.2 mM free Ca2+
Procedure: Measurement of cell surface PS. Calcium ionophore-induced exposure of PS on the surface of all cell lines analyzed was detected by the specific binding of coagulation factor Va (light chain) as previously described (P. J. Sims, et al., J. Biol. Chem. 263:18205-18212, 1988; H. Kojima, et al., J. Clin. Invest. 94:2237-2243, 1994). Briefly, cells were washed twice to remove serum proteins and suspended (2×10^6 cells/ml) at 37° C. in RPMI 1640 supplemented with 0.1% BSA, 20 mM HEPES, and adjusted to 1.2 mM free [Ca^2+]. At time=0 A231.87 (0 or 2 μM final concentration) was added from 1 mM stock solution in DMSO, and at times indicated in figure legends, the reaction was stopped by addition of 6 mM EGTA. PS exposed on the cell surface at each time point was detected by incubating (10 minutes, room temperature) 50 μl of the cell suspension with […] FVa, followed by 10 μg/ml anti-FVa, to detect the cell-bound FVa light chain. After staining with 10 μg/ml Tri-Color conjugated goat anti-mouse IgG (CALTAG Laboratories, Burlingame, Calif.), single-cell fluorescence was quantitated by flow cytometry (FL3 channel, FACScan, Becton Dickinson Immunocytometry Systems). Use of Tri-Color conjugate to detect cell-bound FVa enabled simultaneous measurement of cell-associated GFP fluorescence in cell lines transformed with the pEGFP-C2 expression plasmid (fluorescence of GFP detected in FL1 channel). In experiments in which cell lysis was monitored by uptake of propidium iodide, cells were stained for bound FVa with FITC-conjugate of goat anti-mouse IgG (FL1 channel) substituting for Tri-Color conjugate, and propidium iodide was detected in FL3 channel. Propidium iodide (0.5 μg/ml) was added immediately before dilution for flow cytometry.
FIG. 8 depicts western blot analysis of PL scramblase in various human cell lines. Constitutive expression of PL scramblase was analyzed in the human cell lines indicated. […] At times shown (abscissa), EGTA was added and cells analyzed for surface exposed PS as detected by cell-bound FVa light chain (see Materials and Methods). […]

human PL scramblase = assay: PL scramblase activity: Ca2+-dependent transbilayer movement of NBD-PC in reconstituted PC/PS proteoliposomes; format: biochemical; settings: for apparent avidity for Ca2+ of mutant human PL scramblase: activity as function of external free [Ca2+]; for PL scramblase function of Ala-substituted mutants of the EF-hand loop vs wild type: mutant human PL scramblase, 2 mM CaCl2
Procedure: Reconstitution of PL scramblase or scramblase fusion protein into proteoliposomes. Reconstitution and functional activity were performed essentially as previously described (F. Bassé, et al., J. Biol. Chem. 271:17205-17210, 1996; J. G. Stout, et al., J. Clin. Invest. 99:2232-2238, 1997). Briefly, a mixture of PC and PS (9:1 molar ratio) was dried under a stream of nitrogen and resuspended in 100 mM Tris, 100 mM KCl, 0.1 mM EGTA, pH 7.4 (Tris buffer). Protein samples to be reconstituted were added to the liposomes at a final lipid concentration of 4 mg/ml in the presence of 60 mM OG, and dialyzed overnight at 4° C. against 200 vol of Tris buffer containing 1 g/L Bio-Beads SM-2. To liberate PL scramblase from MBP, the proteoliposomes were incubated 3 h at room temperature in the presence of 1/40 (w/w) factor Xa. The digestion was terminated by addition of 100 μM Glu-Gly-Arg chloromethyl ketone. Completeness of the digest was monitored by SDS-PAGE. Following dialysis, the proteoliposomes were labeled in the outer leaflet by addition of 0.25 mol % fluorescent NBD-PC (in dimethyl sulfoxide, final solvent concentration 0.25%).
PL Scramblase activity. Scramblase activity was measured as previously described (F. Bassé, et al., supra, 1996; J. G. Stout, et al., supra, 1997 and in U.S. Ser. No. 08/790,186). Routinely, proteoliposomes labeled with NBD-PC were incubated for 2 hours at 37° C. in Tris buffer in the presence or absence of 2 mM CaCl2. Proteoliposomes were diluted 25-fold in Tris buffer containing 4 mM EGTA and transferred to a stirred fluorescence cuvet at 23° C. Initial fluorescence was recorded (SLM Aminco 8000 spectrof luorimeter; excitation at 470 nm, emission at 532 nm), 20 mM dithionite was added, and the fluorescence continuously monitored for a total of 120 seconds. The difference in non-quenchable fluorescence observed in presence vs. absence of CaCl2 Was attributed to Ca^2+-induced change in NBD-PC located in the outer leaflet (F. Bassé, et al., supra, 1996; J. G. Stout, et al., supra, 1997; J. C. McIntyre and R.G. Sleight, Biochemistry 30:11819-11827, 1991). Ionized [Ca^2+] was calculated using FreeCal version 4.0 software (generously provided by Dr. Lawrence F. Brass, University of Pennsylvania, Philadelphia, Pa.).
(§1) Reconstitution and Functional Activity of PL Scramblase: Reconstitution, removal of MBP, and functional assay of PL scramblase were performed as previously described (F. Bassé, et al., J. Biol. Chem. 271:17205-17210, 1996; Q. Zhou, et al., supra, 1997; J. G. Stout, et al., J. Clin. Invest. 99:2232-2238, 1997). Routinely, 420 pmoles of protein were reconstituted with 1 μmol of PL. To remove MBP, proteoliposomes were incubated 3 hours at room temperature with 1/40 (w/w) factor Xa. The digest was terminated by addition of 100 μM Glu-Gly-Arg chloromethyl ketone. Proteoliposomes labeled with NBD-PC were incubated for 2 hours at 37° C. in Tris buffer in the presence or absence of CaCl2 as indicated in figure legends and diluted 25-fold in Tris buffer containing 4 mM EGTA. Initial fluorescence was recorded (SLM Aminco 8000 spectrofluorimeter; excitation at 470 nm, emission at 532 nm), 20 mM dithionite was added, and the fluorescence was continuously monitored for a total of 120 seconds. Scramblase activity was calculated according to the difference in non-quenchable fluorescence observed in presence vs absence of CaCl2. Ionized [Ca^2+] was calculated using FreeCal version 4.0 software (generously provided by Dr. Lawrence F. Brass, University of Pennsylvania, Philadelphia, Pa.).
Mutagenesis of PL Scramblase: Human PL scramblase amino acid residues in EF-hand Ca^2+-binding motif at positions of Asp^273, Asp^275, Phe^277, Ile^279, Phe^281 and Asp^284 were mutated to Ala with oligonucleotide-directed mutagenesis by two rounds of PCR. […]

mouse PL scramblase = molecular target: T1, mouse PL scramblase (Mus musculus, UniProt Q9DCW2); assay: PL scramblase activity of recombinant mouse protein in reconstituted PC/PS proteoliposomes; format: biochemical; settings: 420 pmoles protein, 1 μmol PL
T1 construct: made in house; host or cells: E. coli TB1 (pMAL-C2)
T1 sequence (Q9DCW2 1-307): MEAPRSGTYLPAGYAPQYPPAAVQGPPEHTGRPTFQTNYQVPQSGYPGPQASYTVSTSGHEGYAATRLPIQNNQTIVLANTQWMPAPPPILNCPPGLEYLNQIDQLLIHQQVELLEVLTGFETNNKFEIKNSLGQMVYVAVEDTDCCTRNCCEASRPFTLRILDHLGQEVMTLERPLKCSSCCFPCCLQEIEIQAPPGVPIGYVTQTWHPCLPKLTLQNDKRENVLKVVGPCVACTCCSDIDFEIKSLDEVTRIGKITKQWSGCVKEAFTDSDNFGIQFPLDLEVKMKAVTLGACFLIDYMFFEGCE
Procedure: Expression and Purification of Mouse PL Scramblase-MBP Fusion Protein: Mouse PL scramblase was expressed as fusion protein with MBP in E. coli TB1 and purified on amylose resin as previously described for human PL scramblase (Q. Zhou, et al., J. Biol. Chem. 272:18240-18244, 1997). The purified fusion protein was centrifuged at 106,000×g for 1 hour at 4° C. to remove aggregated protein.
as §1
Functional Activity of Recombinant Mouse PL Scramblase. In order to confirm that the cDNA identified as mouse PL scramblase encodes a protein of similar function to that identified in human, the human and mouse proteins were each expressed in E. coli, purified, and reconstituted in proteoliposomes for measurement of PL mobilizing activity. Mouse or human PL scramblase-MBP fusion protein (420 pmoles) was reconstituted into PC/PS liposomes (1 μmol total PL), respectively, MBP was removed by digestion of the proteoliposomes with factor Xa, and PL scramblase activity was determined as described under “Experimental Procedures” and plotted as a function of external free [Ca^2+]. The results of this experiment indicate that recombinant mouse PL scramblase mediated a Ca^2+-dependent transbilayer movement of membrane PL with a specific activity and affinity for Ca^2+ indistinguishable from that observed for the recombinant human protein.

Molecule: CNc1ccc2oc(C[C@H]3O[C@@]4(CC[C@H]3C)O[C@H]([C@H](C)C(=O)c3ccc[nH]3)[C@H](C)C[C@H]4C)nc2c1C(=O)O [A23187]
- PS mobilized to the cell surface in response to calcium ionophore ([1]; HEL, W9 and Jurkat cells): notably robust responses
- PS mobilized to the cell surface in response to calcium ionophore ([1]; Molt-4 and K562 cells): intermediate responses
- PS mobilized to the cell surface in response to calcium ionophore ([1]; Raji, HL60 and Dami cells): notably unresponsive

B1: Asp275: Mutant human PL scramblase with Ala substitution at Asp275 (EF-hand loop position 3) (protein, UniProt O15162 1-318, looked up, variant D275A)
Phospholipid scramblase 1: MDKQNSQMNASHPETNLPVGYPPQYPPTAFQGPPGYSGYPGPQVSYPPPPAGHSGPGPAGFPVPNQPVYNQPVYNQPVGAAGVPWMPAPQPPLNCPPGLEYLSQIDQILIHQQIELLEVLTGFETNNKYEIKNSFGQRVYFAAEDTDCCTRNCCGPSRPFTLRIIDNMGQEVITLERPLRCSSCCCPCCLQEIEIQAPPGVPIGYVIQTWHPCLPKFTIQNEKREDVLKISGPCVVCSCCGDVDFEIKSLDEQCVVGKISKHWTGILREAFTDAANFGIQFPLDLDVKMKAVMIGACFLIDFMFFESTGSQEQKSGVW
- apparent avidity for Ca2+ of mutant human PL scramblase (human PL scramblase): significant reduction
- PL scramblase function of Ala-substituted mutants of the EF-hand loop vs wild type (human PL scramblase): complete inactivation

B3: Asp273: Mutant human PL scramblase with Ala substitution at Asp273 (EF-hand loop position 1) (protein, listed as Homo sapiens)
chain: B1 Phospholipid scramblase 1 with D273A, A275D
- apparent avidity for Ca2+ of mutant human PL scramblase (human PL scramblase): significant reduction
- PL scramblase function of Ala-substituted mutants of the EF-hand loop vs wild type (human PL scramblase): partial loss of function

More lines, main results first:

- apparent avidity for Ca2+ of mutant human PL scramblase (human PL scramblase): significant reduction
- PL scramblase function of Ala-substituted mutants of the EF-hand loop vs wild type (human PL scramblase): partial loss of function
B2: Asp284: Mutant human PL scramblase with Ala substitution at Asp284 (EF-hand loop position 12) (protein, UniProt O15162 1-318, looked up, variant D284A)
Phospholipid scramblase 1: B1 Phospholipid scramblase 1 with A275D, D284A

- affinity for Ca2+ compared with recombinant human protein (mouse PL scramblase): indistinguishable
- affinity for Ca2+ compared with recombinant human protein (mouse PL scramblase; listed as murine PL scramblase): virtually the same
B4: recombinant mouse PL scramblase: Recombinant murine PL scramblase (SEQ ID NO:4), 307 residues, expressed in E. coli (protein, listed as Mus musculus)
chain: T1 sequence (Q9DCW2 1-307) with Q168N, K178R, K221L, D242S, K256L, K259L, K266L
- specific activity (Ca2+-dependent transbilayer movement of membrane PL) compared with recombinant human protein (mouse PL scramblase): indistinguishable
- specific activity (Ca2+-dependent transbilayer movement of membrane PL) compared with recombinant human protein (mouse PL scramblase; listed as murine PL scramblase): the same activity
